Laboratory results from article PMC10689493 (Nature Communications, 2023).

B1: S2P6 FAB fragment (Fab, V domains shown)
VH: EVQLVQSGAEVKKPGASVKVSCKASGYTFTSQYMHWVRQAPGQGLEWIGIINPSGVHTSYAQKFQGRVTLTRDTSTSTLYMELSSLRSEDTAVYYCARGSPKGAFDYWGQGTLVTVSS
VL: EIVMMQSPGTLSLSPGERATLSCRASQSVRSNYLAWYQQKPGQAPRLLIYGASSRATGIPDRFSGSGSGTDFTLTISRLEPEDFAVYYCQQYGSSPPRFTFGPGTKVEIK
B2: DH1057.1 FAB fragment (Fab, V domains shown)
VH: EVQLVESGTEVKKPGASVKVSCKTSGYIFTNYYIHWVRQAPGQGLEWMGIFNPNGGGTSYAQKFQGRITLTGNTSANTGYMVLRSLTSEDTAVYYCARDPRTSGDNDGFDMWGQGTKVTVSS
VL: VLTQSPATLSLSPGERATLSCRASQSLSSYNYLAWYQQKPGQAPRLLIYAASKRATGIPARFSGSGSGTDFTLTISSLEPEDFAVYFCQQRSNRPPAWTFGQGTKVEIK

Target: T1, biotinylated SARS-CoV-2 Spike protein (WA-2, 2 P) (SARS-CoV-2 WA-2 (entry: reference …, UniProt P0DTC2, stabilised, biotinylated))
T1 construct: source: bought: R&D systems
Experiment: SPR
Conditions: both partners purified

| Binder | Kd |
| --- | --- |
| B1 | 0.4 nM |
| B2 | 11.5 nM |
